Series [1] deals with B cell receptor (BCR) (human (endogenous in Ramos)). In words: FRET or BRET. (In general: Bioluminescence resonance energy transfer reports proximity on the nanometre scale.)
The series “FRET or BRET” deals with the molecule itself. Kind of series: FRET or BRET.

In series [1], “CD19 (from UniProt P15391 20-556) (receptor)” showed a normalized FCET at 30 min of BCR stimulation of 2.6 units; a normalized FCET at 30 min of BCR stimulation, with the CD47xCD19 biAb of 1.5 units; a normalized FCET at 1 hour of BCR stimulation of 3.6 units; a normalized FCET at 1 hour of BCR stimulation, with the CD47xCD19 biAb of 1.9 units.

B1: CD19 (receptor)
chain: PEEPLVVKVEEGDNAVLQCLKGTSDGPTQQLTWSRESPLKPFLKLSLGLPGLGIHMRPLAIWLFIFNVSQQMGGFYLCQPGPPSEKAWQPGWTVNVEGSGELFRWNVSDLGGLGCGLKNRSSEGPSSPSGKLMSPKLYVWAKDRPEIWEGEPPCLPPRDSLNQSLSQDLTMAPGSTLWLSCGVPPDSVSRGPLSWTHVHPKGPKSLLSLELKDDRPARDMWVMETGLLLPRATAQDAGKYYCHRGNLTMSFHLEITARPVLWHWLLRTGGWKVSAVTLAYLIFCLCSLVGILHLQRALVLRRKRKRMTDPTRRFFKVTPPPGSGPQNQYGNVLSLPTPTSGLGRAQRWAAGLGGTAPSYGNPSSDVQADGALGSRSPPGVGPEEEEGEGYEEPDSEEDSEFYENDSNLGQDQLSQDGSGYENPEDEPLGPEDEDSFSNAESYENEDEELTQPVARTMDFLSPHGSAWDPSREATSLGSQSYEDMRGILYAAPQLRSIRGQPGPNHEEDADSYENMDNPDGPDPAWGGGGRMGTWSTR
Take B1: in the series “FRET or BRET”, the “normalized FCET (fold over baseline), with the bivalent anti-CD19 mAb” value is 8.2 fold.

B2: CD20 (receptor)
chain: MTTPRNSVNGTFPAEPMKGPIAMQSGPKPLFRRMSSLVGPTQSFFMRESKTLGAVQIMNGLFHIALGGLLMIPAGIYAPICVTVWYPLWGGIMYIISGSLLAATEKNSRKCLVKGKMIMNSLSLFAAISGMILSIMDILNIKISHFLKMESLNFIRAHTPYINIYNCEPANPSEKNSPSTQYCYSIQSLFLGILSVMLIFAFFQELVIAGIVENEWKRTCSRPKSNIVLLSAEEKKEQTIEIKEEVVGLTETSSQPKNEEDIEIIPIQEEEEEETETNFPEPPQDQESSPIENDSSP
With B2, in “FRET or BRET”, the “normalized FCET (fold over baseline), with the anti-CD20 mAb rituximab” value was 6.7 fold.

The values are drawn from paper PMC6380423 (mAbs, 2019).
